Results reported in US20230382819A1, “PROCESSES FOR SYNTHESIS OF ALPHA-EMITTING RADIOPHARMACEUTICALS” (priority 2020, published 2023).

Legend:
[1] = mouse, in vivo
Method: Radiochemical synthesis and characterization. Complexation was achieved by reacting DOTATATE (5-10 μg in 5-10 μL water from 1.0 mg/mL solution) with ^225Ac(NO3)3 (3.4 MBq) that was diluted in 100 μL of water containing 10 μL of 20% L-ascorbic acid. The pH was adjusted to 5.5-6 using 1 M Tris buffer (10-12 μL), and then incubated at 60° C. for 1 h (FIG. 1). […] Animal studies. An equal number of male and female subjects were assigned to each experimental cohort. All the animals were purchased from Charles River (Wilmington, MA). Injected Activity Measurement. […] Activities in syringes were measured using the Atomlab 500 Dose Calibrator (Biodex). Per the manufacturer's recommendations, measurements were made for 2 mins using dial number 38.2 and the assumption that ^225Ac and daughters were in secular equilibrium. […] The α activity in μCi of each radionuclide was determined by fitting each peak with a multi-Gaussian fit and integrating to determine the net number of counts while incorporating the acquisition time. The net administered activities were determined by subtraction of the residual activity in the catheter and syringe from the dose calibrator measured pre-injection activity. […] Then, mice were weighed twice per week and monitored for 5 months for signs of distressed behavior, followed by euthanasia and tissue collection. […]

[2] = Radiation dosimetry and clearance kinetics from BD data; assay type: in vivo; details: for Decay half-life, Teff: ^225Ac
Method: (§1) Radiochemical synthesis and characterization. Complexation was achieved by reacting DOTATATE (5-10 μg in 5-10 μL water from 1.0 mg/mL solution) with ^225Ac(NO3)3 (3.4 MBq) that was diluted in 100 μL of water containing 10 μL of 20% L-ascorbic acid. The pH was adjusted to 5.5-6 using 1 M Tris buffer (10-12 μL), and then incubated at 60° C. for 1 h (FIG. 1). […] Animal studies. An equal number of male and female subjects were assigned to each experimental cohort. All the animals were purchased from Charles River (Wilmington, MA). Injected Activity Measurement. […] Activities in syringes were measured using the Atomlab 500 Dose Calibrator (Biodex). Per the manufacturer's recommendations, measurements were made for 2 mins using dial number 38.2 and the assumption that ^225Ac and daughters were in secular equilibrium. Activity was injected into each mouse via tail-vein catheter (50 μL dead volume). […] The α activity in μCi of each radionuclide was determined by fitting each peak with a multi-Gaussian fit and integrating to determine the net number of counts while incorporating the acquisition time. The net administered activities were determined by subtraction of the residual activity in the catheter and syringe from the dose calibrator measured pre-injection activity. Spectra for activity calculations were acquired ≥24 h post-radiosynthesis ensuring that ^225Ac and daughters were in secular equilibrium (see Robertson, A. K. H.; et al. Phys Med Biol 2017, 62 (11), 4406-4420). Maximum tolerated activity/toxicity. […] Then, mice were weighed twice per week and monitored for 5 months for signs of distressed behavior, followed by euthanasia and tissue collection. Blood urea nitrogen (BUN), creatinine, alkaline phosphatase (ALKP), alanine aminotransferase (ALT) and aspartate aminotransferase (AST) content in serum were analyzed using commercial IDEXX CLIP (IDEXX, Main, USA) and read by an automated biochemical analyzer (IDEXX Catalyst DX, Main, USA) following the manufacturer's protocol. Bone, bone marrow, brain, cecum, duodenum, kidney, liver, lymph nodes, muscle, pancreas, salivary gland, small intestine, and spleen were harvested and fixed in 10% formalin. Bone was decalcified in 14% ethylene diaminetetraacetic acid (EDTA) solution after fixation in formalin. All tissues were embedded in paraffin, sectioned (4-6 μm thickness), stained with hematoxylin and eosin (H&E), and examined by the veterinary pathologist (R.E.), in a blind manner. Biodistribution (BD). […] Groups of animals were euthanized at 24, 48 and 96 h p.i., n=4 mice per time point, and tissues were removed and weighed. […] Radiation dosimetry. Dosimetry calculations were performed as previously described. […] The β decay branching ratio for ^217At to ^217Rn is only 0.01% therefore it was assumed that all decays of ^217At were by […] to ^213Bi. The branching ratios for decay of ^213Bi by 98% to ^213Po and by 2% to ^209T1 were accounted for in the calculation. Due to the relatively low LET and the small dimensions of the target tissues, the β emissions from ^217At, ^213Bi, ^209T1 and ^209Pb were assumed negligible and not included in the calculations (see Bolch, W. E.; J Nucl Med 2009, 50 (3), 477-84).
Dosimetry calculations were performed using the generalized internal dosimetry schema of the MIRD Committee for α-particle emitters. According to MIRD #21, the absorbed radiation dose due to particle type x, Dx(rT, TD) is the mean energy imparted to target tissue rT per unit tissue mass, defined by Equation 1: […]
where A(rS, TD) is the total number of nuclear transitions in the […] (accumulated activity), Δi^x is the mean energy emitted per nuclear transition, φ(rT←rS; Ei^x) is the fraction of energy emitted per nuclear transition in the source region that is absorbed in the target region by the i^th emission that is emitted with initial energy E, k is a conversion factor, and M(rT) is the mass of the target tissue.

[3] = Maximum tolerated activity/toxicity in non-tumor bearing mice; assay type: in vivo
Method: as §1, with “(BD). BD studies for ^225Ac-DOTATATE were performed using groups of normal non-tumor bearing BALB/c mice.” for “(BD).”
Anti-tumor efficacy. Efficacy studies were performed using NCI-H69 human SCLC and NCI-H727 lung carcinoid xenograft tumors in SCID mice. […] Animals were euthanized when the experimental endpoint of 2000 mm^3 tumor volume was reached. Any euthanasia performed prior to reaching 2000 mm^3 tumor volume were due to clinical endpoints, such as 20% weight loss, tumor ulceration, hunched back, scruffy fur (no longer grooming), lethargic or slow moving. Histology and immunohistochemistry (IHC). […]

SMILES: C[C@@H](O)[C@H](NC(=O)[C@@H]1CSSC[C@H](NC(=O)[C@@H](Cc2ccccc2)NC(=O)CN2CCN(CC(=O)O)CCN(CC(=O)O)CCN(CC(=O)O)CC2)C(=O)N[C@@H](Cc2ccc(O)cc2)C(=O)N[C@H](Cc2c[nH]c3ccccc23)C(=O)N[C@@H](CCCCN)C(=O)N[C@@H]([C@@H](C)O)C(=O)N1)C(=O)O [^225Ac-DOTATATE, metal not drawn]
- clearance of activity from the tissues [1]: largely cleared
- clearance route [1]: primarily cleared by the renal route, with some hepatic clearance
- Decay half-life, Teff ([2]; Brain): 67.296 h
- Decay half-life, Teff ([2]; Heart): 1732.87 h
- Decay half-life, Teff ([2]; Lung): 53.318 h
- Decay half-life, Teff ([2]; Muscle): 141.46 h
- Decay half-life, Teff ([2]; Pancreas): 115.52 h
- Decay half-life, Teff ([2]; Salivary): 90.019 h
- Decay half-life, Teff ([2]; Skin): 75.343 h
- Decay half-life, Teff ([2]; Spleen): 111.8 h
- calculated total absorbed dose ([2]; mouse, in vivo): minimal
- survival ([3]; all dose levels): all animals survived to 5-months p.i.
- treatment related pathologic changes in other studied organs (not kidney) ([3]; bone, bone marrow, brain, cecum, duodenum, liver, lymph nodes, muscle, pancreas, salivary gland, small intestine, spleen): None and no treatment related damage
- ALKP among the cohorts (ANOVA and Dunnett's test) ([3]; mouse, in vivo): no significant differences
- ALT among the cohorts (ANOVA and Dunnett's test) ([3]; mouse, in vivo): no significant differences
- AST among the cohorts (ANOVA and Dunnett's test) ([3]; mouse, in vivo): no significant differences
- Liver enzymes ([3]; mouse, in vivo): normal
- acute kidney damage by pathology ([3]; mouse, in vivo): no acute kidney damage
